Molecular target: T1, RNF31 PUB domain (Homo sapiens, UniProt Q96EP0)
T1 construct: MBP-TEV (N, cleaved yes); made in house; host or cells: E. coli BL21 (DE3) pLysS
T1 sequence (Q96EP0 1-179): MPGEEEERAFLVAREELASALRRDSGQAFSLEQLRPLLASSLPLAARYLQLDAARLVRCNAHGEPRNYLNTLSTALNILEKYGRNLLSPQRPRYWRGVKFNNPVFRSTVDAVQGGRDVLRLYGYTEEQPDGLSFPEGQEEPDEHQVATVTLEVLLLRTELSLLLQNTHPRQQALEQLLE
Assay: Phage Library Screening with NGS, RNF31 PUB domain
Format: binding
Details: for Phage library screen NGS readout, Target Concentration 10 / Phage library screen NGS readout, Target Concentration 30 / Phage library screen NGS readout, Target Concentration 100 / Phage library screen NGS readout, Target Concentration 300 / Phage library screen NGS readout, Target Concentration 1000: RNF31 PUB domain clusters C41-C45; for Phage library screen NGS readout, BLANK: clusters C41-C45

[1] = target concentration 1000, first column
[2] = target concentration 1000, second column

Sequence | Phage library screen NGS readout, Target Concentration 10 | Phage library screen NGS readout, Target Concentration 30 | Phage library screen NGS readout, Target Concentration 100 | Phage library screen NGS readout, Target Concentration 300 | Phage library screen NGS readout, Target Concentration 1000 [1] | Phage library screen NGS readout, Target Concentration 1000 [2] | Phage library screen NGS readout, BLANK (column 1 of 5) | Phage library screen NGS readout, BLANK (column 2 of 5) | Phage library screen NGS readout, BLANK (column 3 of 5) | Phage library screen NGS readout, BLANK (column 4 of 5) | Phage library screen NGS readout, BLANK (column 5 of 5)
DPAYTLCSWAAMYCDSM | 0 | 1 | 0 | 0 | 5 | 6 | 0 | 1 | 1 | 4 | 2
DPAWEWCLYAAAECIED | 0 | 0 | 0 | 2 | 12 | 5 | 0 | 0 | 0 | 0 | 0
DPAIQECYLAAQVCTTY | 0 | 0 | 0 | 4 | 14 | 13 | 0 | 0 | 0 | 0 | 0
DPAWDYCMYAAYDCNHS | 2 | 0 | 1 | 8 | 46 | 29 | 0 | 1 | 0 | 0 | 1

More lines, now with the values ahead:

Phage library screen NGS readout, Target Concentration 10 | Phage library screen NGS readout, Target Concentration 30 | Phage library screen NGS readout, Target Concentration 100 | Phage library screen NGS readout, Target Concentration 300 | Phage library screen NGS readout, Target Concentration 1000 [1] | Phage library screen NGS readout, Target Concentration 1000 [2] | Phage library screen NGS readout, BLANK (column 1 of 5) | Phage library screen NGS readout, BLANK (column 2 of 5) | Phage library screen NGS readout, BLANK (column 3 of 5) | Phage library screen NGS readout, BLANK (column 4 of 5) | Phage library screen NGS readout, BLANK (column 5 of 5) | Sequence
0 | 0 | 0 | 2 | 7 | 5 | 0 | 0 | 0 | 0 | 0 | DPATEACFDAAIECTYY
2 | 1 | 1 | 6 | 41 | 38 | 0 | 0 | 0 | 0 | 0 | DPAYDWCMYAAYNCVED
0 | 0 | 0 | 0 | 8 | 4 | 0 | 0 | 0 | 0 | 0 | DPAWTDCDWAALYCDES
0 | 1 | 0 | 5 | 7 | 5 | 1 | 2 | 1 | 1 | 1 | DPAWWNCLYAANTCVED

Reference: US20240376151A1, “STAPLED PEPTIDES AND METHODS THEREOF” (FOG PHARMACEUTICALS, INC., priority 2022, published 2024)
